T1: Human TREM2 protein, on cells (human, UniProt Q9NZC2 19-230)
T1 sequence: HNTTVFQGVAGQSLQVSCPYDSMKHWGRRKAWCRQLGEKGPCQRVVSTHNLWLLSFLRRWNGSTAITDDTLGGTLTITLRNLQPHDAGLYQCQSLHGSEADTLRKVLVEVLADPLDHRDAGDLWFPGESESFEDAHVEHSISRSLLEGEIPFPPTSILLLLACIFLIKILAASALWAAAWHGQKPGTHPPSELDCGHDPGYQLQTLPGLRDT

T2: Mouse TREM2, on cells (mouse, UniProt Q99NH8 19-227)
T2 construct: whole, on cells; also called mouse TREM2 HEK
T2 sequence (looked up): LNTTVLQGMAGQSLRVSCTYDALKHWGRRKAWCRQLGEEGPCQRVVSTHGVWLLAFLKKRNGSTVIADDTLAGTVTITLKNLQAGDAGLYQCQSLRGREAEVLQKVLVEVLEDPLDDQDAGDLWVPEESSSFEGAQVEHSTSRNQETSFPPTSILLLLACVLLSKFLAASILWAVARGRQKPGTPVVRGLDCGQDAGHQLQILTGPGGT

T3: His-tagged TREM2 ECD (ecto domain residues 19-172 of human TREM2, C-terminal 6X-His tag) (human, UniProt Q9NZC2 19-172)
T3 construct: Made in Expi293F cells; the mouse Ig kappa secretion signal is not part of the mature protein; Biotinylated for the Octet binning; also called TREM2-His; TREM2-His protein
T3 sequence: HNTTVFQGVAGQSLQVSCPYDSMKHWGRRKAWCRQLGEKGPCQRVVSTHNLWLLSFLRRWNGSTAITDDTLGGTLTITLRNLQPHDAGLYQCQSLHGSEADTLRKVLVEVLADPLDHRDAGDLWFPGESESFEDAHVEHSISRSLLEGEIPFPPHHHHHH

T4: Human TREM2 synthetic 9-mer peptide DLWFPGESE (human)
T4 construct: also called TREM2 peptide; TREM2 9-mer peptide
T4 peptide: DLWFPGESE


Assays:
[1] = target: T1, Human TREM2 protein, on cells; assay: cell-based or functional assay
[2] = target: T1, Human TREM2 protein, on cells; assay: cell-based or functional assay; remark: listed apart in the source
[3] = target: T1, Human TREM2 protein, on cells; assay: flow cytometry titration on hTREM2-HEK cells
From the text: (§1) FIGS. 1A-1D. […] (A) Anti-TREM2 antibodies were screened for binding to HEK cells expressing human TREM2 (unlabeled) and mouse TREM2 HEK expressing cells (labeled with NucBlue). Antibody binding was detected with a secondary anti-mouse multiple adsorption antibody conjugated to APC. […] (B) Parental HEK-GFP cells were used as a negative control to rule out non-specific binding. (C) Anti-TREM2 antibody surface binding dose response in hTREM2-HEK cells. Anti-TREM2 antibodies were titrated for binding to HEK cells expressing human TREM2. Antibody binding was detected with a secondary anti-mouse multiple adsorption antibody conjugated to APC. […] Mouse TREM2 HEK cells were titrated for binding as in (C).
(§2) After labeling, cells were washed twice with 1×PBS. […] Mixed cell lines were seeded at 300,000 cells per well in a 96-well round-bottom and incubated 20 minutes at room temperature. After incubation, cells were centrifuged and test anti-TREM2 antibodies were added, then incubated for 45 minutes on ice. After incubation, cells were centrifuged and washed with FACS buffer three times.

Mouse TREM2, on cells [4] = target: T2, Mouse TREM2, on cells; assay: flow cytometry titration on mTREM2-293F cells
From the text: as §1, §2

[5] = target: T3, His-tagged TREM2 ECD (ecto domain …); assay: Table 1 Kd; Biacore, TREM2-His analyte (presumed)
Method: Anti-murine Fc antibody (obtained from GE Healthcare) was immobilized on the surface of a CM5 chip (obtained from GE Healthcare) through amine-coupling to reach about 6,000 to 8,000 response units (RU). The surface was activated by injection of a mixture of 1-ethyl-3-(3-dimethylaminopropyl)-carbodiimide (EDC) and N-hydroxysuccinimide (NHS), both obtained from GE Healthcare, for 7 minutes. Anti-murine Fc antibody was diluted in sodium acetate (pH 5.0) at 25 μg/mL and injected for 10 minutes at a flow rate of 5 μL/minute, followed by injection of ethanolamine (obtained from GE Healthcare) for 7 minutes.
Purified anti-TREM2 hybridoma (20 μg/mL) was captured to reach 1000-1500 RU. A range of serially-diluted TREM2-His protein (e.g., 3.4 nM to 300 nM) was injected at a flow rate of 30 μL/minute, using either single-cycle kinetics methods. Sensorgrams were fitted using a 1:1 Langmuir model to estimate kₒₙ and koff.

Mouse TREM2, on cells [6] = target: T2, Mouse TREM2, on cells; assay: flow cytometry, 293F cells overexpressing mouse TREM2
Method: as §2
(§3) The data in Table 2 is presented as fold over binding (FOB).

[7] = target: T1, Human TREM2 protein, on cells; assay: flow cytometry, HEK293 cells overexpressing human TREM2
Method: as §2, §3

[8] = target: T3, His-tagged TREM2 ECD (ecto domain …); assay: Biacore T200, antibody captured, antigen injected, 1:1 model
Method: (§4) To measure TfR binding, anti-human-Fab was immobilized on a CM5 chip, and the TREM2/TfR-binding protein was captured. Full-length human TfR or human TfR apical domain at serial dilution (e.g., concentrations of 1-1000 nM) was flowed over the chip (180 second association time) and then allowed to dissociate. Fitting was performed using a 1:1 binding model. To measure TREM2 binding, anti-human-Fc antibody was immobilized on a CM5 chip, and the TREM2/TfR-binding protein was captured. A range of concentrations of recombinant TREM2-His protein were flowed over the chip, and allowed to associate and dissociate. The resulting sensograms were fitted using a 1:1 Langmuir model to estimate kₒₙ and koff (FIG. 10).
(§5) Biacore Series S CM5 sensor chips were immobilized with a mixture of two monoclonal mouse anti-Fab antibodies (Human Fab capture kit from GE Healthcare). Serial 3-fold dilutions of each antigen were injected at a flow rate of 30 μL/min. The binding of the antigens to captured antibody was monitored for 30 to 180 seconds and then their dissociation was monitored for 30-300 seconds in HBS-EP+running buffer (GE, # BR100669). Binding response was corrected by subtracting the RU from a blank flow cell. A 1:1 Languir model of simultaneous fitting of kₒₙ and koff was used for kinetics analysis.

[9] = target: T1, Human TREM2 protein, on cells; assay: cell binding, human TREM2-expressing HEK cells, flow cytometry titration
[10] = target: T4, Human TREM2 synthetic 9-mer peptide …; assay: X-ray co-crystal structure
From the text: The synthetic 9-mer peptide […] (SEQ ID NO:335), corresponding to amino acid residues 140-148 of human TREM2 (according to UniProtKB entry TREM2_HUMAN) was used for co-crystallization.

[11] = target: T5, Human transferrin receptor apical domain (human, UniProt P02786 198-378, limits assumed); assay: Biacore T200, antibody captured, antigen injected, 1:1 model
T5 construct: also called hTfR apical domain; TfR apical domain
Method: as §4, §5

Mouse TREM2, on cells [12] = target: T2, Mouse TREM2, on cells; assay: Table 5, cell binding: Mouse TREM2 HEK

T5 sequence (P02786 198-378 limits assumed): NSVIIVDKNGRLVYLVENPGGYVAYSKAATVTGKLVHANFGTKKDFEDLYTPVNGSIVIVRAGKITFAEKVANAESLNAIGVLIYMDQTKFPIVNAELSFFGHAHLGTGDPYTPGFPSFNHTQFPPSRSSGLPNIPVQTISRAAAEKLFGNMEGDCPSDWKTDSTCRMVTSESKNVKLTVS

Row | pSyk FOB (30 nM Ab) [1] [fold over background] | STREM2 decrease (nM), EC50 [2] [nM] | pSyk (nM), EC50 [2] [nM] | EC50 [3] [nM] | EC50 (Mouse TREM2, on cells [4]) [nM] | Kd [5] [nM] | FOB (fold over binding) (Mouse TREM2, on cells [6]) [fold] | FOB (fold over binding) [7] [fold] | Kd [8] [nM] | koff [8] [s⁻¹] | kon [8] [M⁻¹ s⁻¹] | EC50 [9] [nM] | binding result [10] | Kd [11] [nM] | koff [11] [s⁻¹] | kon [11] [M⁻¹ s⁻¹] | binding result (Mouse TREM2, on cells [12]) | Binder
1 | 8.49 | 0.3 | 15.9 | < 2 | < 8 | 0.733 | 73 | 13.2 | 2.3 | 0.00034 | 150000 | 1.62 | – | – | – | – | – | RS9.F6 (antibody, V domains shown) VH: QVQLQQPGAELVKPGASVKLSCKASGYTFTSYWMHWVKQSPGRGLEWIGRSDPTTGGTNYNEKFKTKATLTVDKPSSTAYMQLSSLTSDDSAVYYCVRTSGTGDYWGQGTSLTVSS VL: DVVMTQTPLSLPVSLGDQASISCRSSQSLVHNNGNTFLHWYLQKPGQSPKLLIYKVSNRFSGVPDRFSGSGSGTDFTLKISRVEAEDLGVYFCSQTTHVPPTFGGGTKLEIK
2 | – | – | – | – | – | – | – | – | – | – | – | – | binds | – | – | – | – | F6 Fab (Fab fragment of anti-TREM2 antibody RS9.F6) (Fab, V domains shown, Fab expressed in Expi-293 cells; also called TREM2 Fab) VH: QVQLQQPGAELVKPGASVKLSCKASGYTFTSYWMHWVKQSPGRGLEWIGRSDPTTGGTNYNEKFKTKATLTVDKPSSTAYMQLSSLTSDDSAVYYCVRTSGTGDYWGQGTSLTVSS VL: DVVMTQTPLSLPVSLGDQASISCRSSQSLVHNNGNTFLHWYLQKPGQSPKLLIYKVSNRFSGVPDRFSGSGSGTDFTLKISRVEAEDLGVYFCSQTTHVPPTFGGGTKLEIK
3 | – | – | – | – | – | – | – | – | 2.6 | 0.00038 | 150000 | – | – | 110 | 0.19 | 1.7e+06 | – | RS9.F6/3C.35.21.17 (bispecific antibody, human IgG1, L234A L235A, second: RS9.F6 Fd on Fc with LALAPG and hole mutations; Vectors co-transfected 1:1:2; also called RS9.F6/3C35.21.17_LALAPG; ATV-Anti-TREM2) heavy 1: QVQLQQPGAELVKPGASVKLSCKASGYTFTSYWMHWVKQSPGRGLEWIGRSDPTTGGTNYNEKFKTKATLTVDKPSSTAYMQLSSLTSDDSAVYYCVRTSGTGDYWGQGTSLTVSSASTKGPSVFPLAPSSKSTSGGTAALGCLVKDYFPEPVTVSWNSGALTSGVHTFPAVLQSSGLYSLSSVVTVPSSSLGTQTYICNVNHKPSNTKVDKKVEPKSCDKTHTCPPCPAPEAAGGPSVFLFPPKPKDTLMISRTPEVTCVVVDVSHEDPEVKFNWYVDGVEVHNAKTKPREEQYNSTYRVVSVLTVLHQDWLNGKEYKCKVSNKALGAPIEKTISKAKGQPREPQVYTLPPSRDELTKNQVSLWCLVKGFYPSDIAVLWESYGTEWASYKTTPPVLDSDGSFFLYSKLTVTKEEWQQGFVFSCSVMHEALHNHYTQKSLSLSPGK heavy 2: QVQLQQPGAELVKPGASVKLSCKASGYTFTSYWMHWVKQSPGRGLEWIGRSDPTTGGTNYNEKFKTKATLTVDKPSSTAYMQLSSLTSDDSAVYYCVRTSGTGDYWGQGTSLTVSSASTKGPSVFPLAPSSKSTSGGTAALGCLVKDYFPEPVTVSWNSGALTSGVHTFPAVLQSSGLYSLSSVVTVPSSSLGTQTYICNVNHKPSNTKVDKKVEPKSCDKTHTCPPCPAPEAAGGPSVFLFPPKPKDTLMISRTPEVTCVVVDVSHEDPEVKFNWYVDGVEVHNAKTKPREEQYNSTYRVVSVLTVLHQDWLNGKEYKCKVSNKALGAPIEKTISKAKGQPREPQVYTLPPSRDELTKNQVSLSCAVKGFYPSDIAVEWESNGQPENNYKTTPPVLDSDGSFFLVSKLTVDKSRWQQGNVFSCSVMHEALHNHYTQKSLSLSPGK light: DVVMTQTPLSLPVSLGDQASISCRSSQSLVHNNGNTFLHWYLQKPGQSPKLLIYKVSNRFSGVPDRFSGSGSGTDFTLKISRVEAEDLGVYFCSQTTHVPPTFGGGTKLEIK
4 | 9.89 | – | 20.5 | < 2 | < 8 | 0.852 | 75.8 | 12.9 | – | – | – | 1.54 | – | – | – | – | – | RS9.F10 (antibody, V domains shown, same entries as RS9.F6; also called RS.F10) VH: QVQLQQPGAELVKPGASVKLSCKASGYTFTSYWMHWVKQSPGRGLEWIGRSDPTTGGTNYNEKFKTKATLTVDKPSSTAYMQLSSLTSDDSAVYYCVRTSGTGDYWGQGTSLTVSS VL: DVVMTQTPLSLPVSLGDQASISCRSSQSLVHNNGNTFLHWYLQKPGQSPKLLIYKVSNRFSGVPDRFSGSGSGTDFTLKISRVEAEDLGVYFCSQTTHVPPTFGGGTKLEIK
5 | 17.3 | – | 49.8 | – | – | 12.4 | 1.5 | 8.6 | – | – | – | 7.5 | – | – | – | – | no binding | 24B4.A1 (antibody, V domains shown, Mouse hybridoma antibody, Ig2a, k; same entries as 26E2.A3; also called RS8.24B4.A1) VH: QVHLQQSGSELRSPGSSVKLSCKDFDSEVFPISYMSWIRQKPGHGFEWIGDILPSIGGRIYGVKFEDRATLDADTVSNTAYLELNSLTSEDSAIYYCARKDYGSLAYWGQGTLVTVSA VL: DVVMTQTPLSLPVSLGDQASISCRSSQSLVHINGNTYLQWFLQKPGQSPKLLIYKVSNRFSGVPDRFSGSGSGTAFTLKISRVEAEDLGVYFCSQSTHVPYTFGGGTKLEIK
6 | 6.56 | – | 456 | – | – | 2.19 | 1.7 | 12.8 | – | – | – | 4.09 | – | – | – | – | no binding | 54C2.A1 (antibody, V domains shown, Mouse hybridoma antibody, Ig2b, k; also called RS8.54C2.A1) VH: QVHLQQSGSELRSPGSSVKLSCKDFDSEVFPIAYMSWVRQKPGHGFEWIGDILPSIGRRIYGVKFEDKATLDADTVSNTAYLELNSLTSEDSAIYYCTRKDYGSLAYWGQGTLVTVSA VL: DVVMTQTPLSLPVSLGDQASISCRSSQSLVHINGNTYLQWYLQKPGQSPKLLIYKVSNRFSGVPDRFSGSGSGTDFTLRISRVEAEDLGVYFCSQSTHLPYTFGGGTKLEIK

From US20200277373A1 (DENALI THERAPEUTICS, published 2020)
